{"source": "the nanobody polyreactivity screen of Harvey et al. (2022)", "data": [{"assay": "yeast display, Sf9 membrane polyspecificity reagent, FACS + sequencing; frameworks hold sequencing errors", "method_in_brief": "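Nanobodies came from a synthetic yeast display library in Saccharomyces cerevisiae BJ5465, induced with galactose for 36–48 hours and stained for 1 hour at 4 °C with 10% biotinylated, detergent-solubilized Sf9 membrane reagent. Cells were enriched on streptavidin microbeads and then FACS-sorted, with low and high (top ~1%) gates set on anti-HA fluorescence for expression and streptavidin fluorescence for reagent binding. Each polyreactivity label reflects the gate a clone came from. Genes were amplified by colony PCR, sequenced by MiSeq 2 × 250 and filtered by CDR length.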", "values": [{"sequence": "QVQLVESGGGLVQAGGSLRLSCAASGRTLKRNAMGWYRQAPGKERELVAAISFRVTNTYYADSVKGRFTISRDNAKNTVYLQMNSLKPEDTAVYYCAVPDSRFYSPRRVSPHDYWGQGTQVTVSS", "polyreactivity (PSR sort gate)": "high polyreactivity"}, {"sequence": "QVQLVESGGGLVQAGGSLRLSCAASGRTLKYNPMGWYRQAPGKERELVAAISRSGGRTYYADSVKGRFTIARDIAKYSVYSQINSLKPEDTAVYYCARESSYYKYYYWGQGTQVTLSS", "polyreactivity (PSR sort gate)": "high polyreactivity"}, {"sequence": "QVQLVESGGGLVQAGGSLRLSCAASGRTLLPNAMGWYRPAPGKERELVADISTSDGSTRYADSVKGRFTISRDNAKNTVYLQMNSLKPEDTAVYYCAAGSEYYSYGGVRFSFYYWGQGTQVTVSS", "polyreactivity (PSR sort gate)": "low polyreactivity"}, {"sequence": "QVQLVESGGGLVQAGGSLRLSCAASGRTLNTYTMGWYRQAPGKERELVAAITWRGGRTYYADSVKRRFTISRDYAKNTVYLQMNSLKPEDTAVYYCAAVRRNKPVGYGYWGQGTQVTVSS", "polyreactivity (PSR sort gate)": "high polyreactivity"}, {"sequence": "QVQLVESGGGLVQAGGSLRLSCAASGRTLPAYAMGWYRQAPGKERELVAAISWGGGSTYYADSVKGRFTISRDNAKKTVYLQMNSLKPEDTAVYYCAVAGYWFAVAEYDYWGQGTQVTVSS", "polyreactivity (PSR sort gate)": "low polyreactivity"}, {"sequence": "QVQLVESGGGLVQAGGSLRLSCAASGRTLPEYGMGWSRQAPGKEREFVAAISTRGGSTYYANSVKGRFTISRDNAKNTVYLQMNSLKPEDTAVYYCAKVYDRSCGDYWGQGTQVTVSS", "polyreactivity (PSR sort gate)": "low polyreactivity"}, {"sequence": "QVQLVESGGGLVQAGGSLRLSCAASGRTLQGYAMGWYSQAPGKERELVAAISRGGGSTYADSVKGRFTISRDNAKNTVYLQMNSLKPEDTAVYYCAAVRGIYGGHYFRYDYWGQGTQVTVSS", "polyreactivity (PSR sort gate)": "high polyreactivity"}, {"sequence": "QVQLVESGGGLVQAGGSLRLSCAASGRTLRRNAMGWYRQAPGKERELVAAITWSGTSTYYADSVKGRFTISRDNAKNTVDLQMNSLKPEDTAVYYCAAEVAYTDTEYFWYYYWGQGTQVTVSS", "polyreactivity (PSR sort gate)": "high polyreactivity"}, {"sequence": "QVQLVESGGGLVQAGGSLRLSCAASGRTLSHYAMGWYRQAPGKERELVAAITRSGGSTYYADSVKGRFTISRDYAKNTVYLQMNSLKPEDTAVYYCNKTLYTTYDYWGQGTQVTVSS", "polyreactivity (PSR sort gate)": "low polyreactivity"}, {"sequence": "QVQLVESGGGLVQAGGSLRLSCAASGRTLSVYAMGWYRQAPGKERELVAAITIRGGRTYYADSVKGRFTISRDNAKNTVYLQMNSLKPEDTAVYYCAAPPYVKMDYWGQGTQVTVSS", "polyreactivity (PSR sort gate)": "high polyreactivity"}, {"sequence": "QVQLVESGGGLVQAGGSLRLSCAASGRTLSYYAMGWYRQAPGKEREFVAAITGSGGSTYYADSVKGRFTISRDNAKYTVYLQMNSLKPEDTAVYYCNAKGLGVFTVEYYYWGQGTQVTVSS", "polyreactivity (PSR sort gate)": "low polyreactivity"}, {"sequence": "QVQLVESGGGLVQAGGSLRLSCAASGRTLSYYAMGWYSQAPGKERELVAAITWNGGRTYYADSVKGRFTISRDNAKNTVYLQMNSRKPEDTAVYYCNAVYSPRYYVGGYDYWGQGTQVTVSS", "polyreactivity (PSR sort gate)": "high polyreactivity"}, {"sequence": "QVQLVESGGGLVQAGGSLRLSCAASGRTLTQNAMGWYRQAPGKERELVATISWTAGSTYYADSVKGRFTISRDNAKNTVYLQMNSLKPEDTAVYYCAADVFYSIYDYWGQGTQVTVSS", "polyreactivity (PSR sort gate)": "low polyreactivity"}, {"sequence": "QVQLVESGGGLVQAGGSLRLSCAASGRTLVKYAMGWYRQAPGKERELVAAISSGGGTYYADSVKGRFTISRDNAKNTVYLQMNSLKPEDTAVYYCATPYYRRYAAPGYDYWGQGTQVTVSS", "polyreactivity (PSR sort gate)": "low polyreactivity"}, {"sequence": "QVQLVESGGGLVQAGGSLRLSCAASGRTLVSNAMGWYRQAPGKERELVARISYRGGSTYYADSVKGRFTISRDNAKNTVYLQMNSLKPEDTAVYYCAAGVRGSGRRMEYWGQGTQVTVSS", "polyreactivity (PSR sort gate)": "high polyreactivity"}, {"sequence": "QVQLVESGGGLVQAGGSLRLSCAASGRTLVYYAMGWYRQAPGKERELVAAITSVGSTNYADSVKGRFTISRDNAKNTVYLQMNSLKPEDTAVYYCAVRRVVARYDHWGQGTQVTVSS", "polyreactivity (PSR sort gate)": "low polyreactivity"}, {"sequence": "QVQLVESGGGLVQAGGSLRLSCAASGRTLWSYVMGWYRQAPGKERELVAAITSGGTTYYADSVKGRFTISRDKAKNTVYLQMNSLKPEDTAVYYCAAGKYYLRLLPYGYWGQGTQVTVSS", "polyreactivity (PSR sort gate)": "high polyreactivity"}, {"sequence": "QVQLVESGGGLVQAGGSLRLSCAASGRTLYGYTMGWYRQAPGQEREVVAAINAGGGSTYYADSVKGRFTSSRDNAKNTVYLQMNSLKPEDTAVYSCNARVRVRLGRNWSSYYYWGQGTQVTVSS", "polyreactivity (PSR sort gate)": "high polyreactivity"}, {"sequence": "QVQLVESGGGLVQAGGSLRLSCAASGRTLYIYAMGWYRQAPGKERELVAAITRRGDSTYYADSVKGRFTISRDNAKNTVYLQMNSLKPEDTAVYYCAADFQDTSSQYDPAYEYWGQGTQVTVSS", "polyreactivity (PSR sort gate)": "low polyreactivity"}, {"sequence": "QVQLVESGGGLVQAGGSLRLSCAASGRTLYRNDMGWYIQAPGKERELVARITWSGASTYYADSVKGRFTISRDNAKNSVYLQMKSLKTEDTAVYFCAALYLSRRYGPDDSYNFWGQGTQVTVSS", "polyreactivity (PSR sort gate)": "high polyreactivity"}, {"sequence": "QVQLVESGGGLVQAGGSLRLSCAASGRTLYVNAMGSYRQAPGKERELVARISSGSSTNYADSVKGRFTISRDNAKNTVYLQMNSLKPEHTAVYYCAARYTARRQSYGYWGQGTQVTVSS", "polyreactivity (PSR sort gate)": "high polyreactivity"}, {"sequence": "QVQLVESGGGLVQAGGSLRLSCAASGRTLYWYAMGWYRQAPGKERQLVAVISGSGASTYYADSVKGRFTISRDNAKNTVYLQMNSLKPEDTAVYYCNARDYRRYGRYHWQDYDYWGQGTQVTVSS", "polyreactivity (PSR sort gate)": "high polyreactivity"}, {"sequence": "QVQLVESGGGLVQAGGSLRLSCAASGRTLYYYAMGWYRQAPGKEMDLVASISRGGNTNYADSVKGRFTISRDNAKNSVYLQMYSLKPEDTAVYYCAAQYSPYSFSQYVYWGQGTQVTVSS", "polyreactivity (PSR sort gate)": "high polyreactivity"}, {"sequence": "QVQLVESGGGLVQAGGSLRLSCAASGRTLYYYTMGWYRPAPGKERELVAAIRWSTGSTYYADSVKGRFTISRDNAKNTVYLQMNSLKPEDTAVYYCNAYRYQWAQSTEYDYWGQGTQVTVSS", "polyreactivity (PSR sort gate)": "high polyreactivity"}, {"sequence": "QVQLVESGGGLVQAGGSLRLSCAASGRTMNSNAKGSYRQAPGKEREFVAAITSGGSTNYADSVKGRFSLSRDNAKNTVYLQMTSLKPEDTAVYYCAVRGYWTIRCRRYYYWGHGTQVTVSS", "polyreactivity (PSR sort gate)": "high polyreactivity"}, {"sequence": "QVQLVESGGGLVQAGGSLRLSCAASGRTSAIYDMGWYRQAPGKERDLVAAIDYSDGSTYYADSVKGRFTISRDNAKYTVYLQMNSLKPEDTAVYYCAADYDAIYLWWGYDYWGQGTQLTVSS", "polyreactivity (PSR sort gate)": "low polyreactivity"}, {"sequence": "QVQLVESGGGLVQAGGSLRLSCAASGRTSGFNTMGWYRPAPGKEREMVAAISFSGGSTYYADSVKGRFTISRDNAKNTVYLQMNSLKPEDTAVYYCNALYRYLYRSGDYWGQGTQVTVSS", "polyreactivity (PSR sort gate)": "low polyreactivity"}, {"sequence": "QVQLVESGGGLVQAGGSLRLSCAASGRTSKVYAMGWYRQAPGTERELVAAITRGNTYYADSVKGRFTISRDNAKNTVYLQMNSLKPEDTAVYYCAADYRYWLSYFKKYDYWGQGTQVTVSS", "polyreactivity (PSR sort gate)": "high polyreactivity"}, {"sequence": "QVQLVESGGGLVQAGGSLRLSCAASGRTSQEYAMGWYRQAPGKERELVAGITRRGGTTYYADSVKGRFTISRDNAKNTVYLQMNRLNPEDTAVYYCAKRYTHSFKYEYWGQCTQVTVSS", "polyreactivity (PSR sort gate)": "high polyreactivity"}, {"sequence": "QVQLVESGGGLVQAGGSLRLSCAASGRTSRDYAMGWYRQAPGKERELVAAIRWRGVSTYYADSVKGRFTISRDNAKNTVYLQMNSLKPEDTAVYYCAKRESVSTSAGKGAMDSWGQGTQVTVSS", "polyreactivity (PSR sort gate)": "high polyreactivity"}, {"sequence": "QVQLVESGGGLVQAGGSLRLSCAASGRTSRFYAMGWYRQAPGKERELVARITTRGGSTYYADSVKGRFTISRDNAKNTVYLQMNSLKPEDTAVYYCNAERAGTYRYDYWGQGTQVTVSS", "polyreactivity (PSR sort gate)": "high polyreactivity"}, {"sequence": "QVQLVESGGGLVQAGGSLRLSCAASGRTSRLYAMGWYRQAPGKERELVATITRSAGDTYYADSVKGRFTISRDNAKNTVYLQMNSLKPEDTAVYYCNARAAKWSRYDYWGQGTQVTVSS", "polyreactivity (PSR sort gate)": "high polyreactivity"}, {"sequence": "QVQLVESGGGLVQAGGSLRLSCAASGRTSRRNAMGWYRQAPGKERELVAATSGSGTSTYYADSVKGRFTISRDNAKNTVYLQMNSLKPEDTAVYYCNTDTSRRAVQYDYWGQGTQVTVSS", "polyreactivity (PSR sort gate)": "high polyreactivity"}, {"sequence": "QVQLVESGGGLVQAGGSLRLSCAASGRTSRVNAMGWYRQAPGKERELVATITKSGGSTFYADSVKGRFTISRDNAKNTVYLQMNILKPEDTAVYYCNAGGVRATKGYDYWGQGTQVTVSS", "polyreactivity (PSR sort gate)": "low polyreactivity"}, {"sequence": "QVQLVESGGGLVQAGGSLRLSCAASGRTSRVNAMGWYRQAPGKERELVATITKSGGSTFYADSVKGRFTISRDNPKNTVYLQMNILKPEDTAVYYCNAGGVRATKGYDYWGQGTQVTVSS", "polyreactivity (PSR sort gate)": "low polyreactivity"}, {"sequence": "QVQLVESGGGLVQAGGSLRLSCAASGRTSRYALGWYRQAPGKERELVAAISRNGGTTSYADSVKGRFTISRDNAKNTVYLQMNSLKPEDTAVYYCNAYSAFVPPTRGYYWGQGTQVTVSS", "polyreactivity (PSR sort gate)": "high polyreactivity"}, {"sequence": "QVQLVESGGGLVQAGGSLRLSCAASGRTSSVYARGWSRQAPGKEREWVAAITSSGGSTYYADSVKGRFTISRDNAKNTVYLQMNSLNPEDTAVYYCAAETYPVWGVAFYYWGQGTQVTVSS", "polyreactivity (PSR sort gate)": "high polyreactivity"}, {"sequence": "QVQLVESGGGLVQAGGSLRLSCAASGRTSVSYAMGWYRQAPGKERELVASITSGGSTYYADSVKGRFTISRDNAKNTVYLQMNSLKPEDTAVYYCAARGRNVAGYKGGYWGQGTQVTVSS", "polyreactivity (PSR sort gate)": "high polyreactivity"}, {"sequence": "QVQLVESGGGLVQAGGSLRLSCAASGRTSWPYAMGWYRQAPGKERELVAGISRNGGRTYYADSVKGRFTISRDNAKNTVYLQMNSLKPEDTAVYYCNAYPPSRHDYWGQGTQVTVSS", "polyreactivity (PSR sort gate)": "high polyreactivity"}, {"sequence": "QVQLVESGGGLVQAGGSLRLSCAASGRTSWVNAMGWYRQAPGKERELVAAIVSGGTTKYADSVKGRFTISRDNAKNTVYLQMNSLKPEDTAVYYCAVRYSKRSVYTYGFNYWGQGTQVTVSS", "polyreactivity (PSR sort gate)": "high polyreactivity"}, {"sequence": "QVQLVESGGGLVQAGGSLRLSCAASGRTSYGYAMGWYRQAPGKERELVAGISRSGSSTYYADSVKGRFTISRDNAKNTVYLQMNSMKPEDNAVYYCNAARPFNRVPRQTWKMGYWGQGTQVTVSS", "polyreactivity (PSR sort gate)": "high polyreactivity"}, {"sequence": "QVQLVESGGGLVQAGGSLRLSCAASGRTSYVYAMGWYRQAPGKERELVAAITSSGGSTYYADSVKGRFTISRDNAKNTVYLQMNSLKPEDTAVYYCAASRVRYSYGYPYYYWGQGTQVTVSS", "polyreactivity (PSR sort gate)": "high polyreactivity"}, {"sequence": "QVQLVESGGGLVQAGGSLRLSCAASGRTSYYAMGWYRQAPGKERELVAAINSGDSTTYADSVKGRFTISRDNAKNNVYLQMNSLKPEDTAVYYCATALYDWYSLEFDYWGQGTQVTVSS", "polyreactivity (PSR sort gate)": "low polyreactivity"}]}]}
